Article doi:10.1101/2023.04.09.536162

Molecular target: L-threonine aldolase from Neptunomonas marine (NmLTA), wild type (Neptunomonas marine)
Assay: crystal structure

In the case of “L-threonine aldolase from Neptunomonas marine (NmLTA), wild type (enzyme)”, the stoichiometry N was 4.
